The test system of data set [1] is HaCat (human immortalized epidermal cells) cells. Nature of the data set: Cytotoxic assay (CCK-8) in HaCat cells. The data set is classed as cell-based. The following applies: 60 hours. How it is done: Preparation of Cell Suspension: HaCat (human immortalized epidermal cells) cells were counted and inoculated into 96-well plates. 100 μL of cell suspension was added to each well, corresponding to a density of 5×10^4 cells per well, with three replicates for each sample. The cells were cultured in a 37° C. incubator for 4 hours until they were attached to the plate. Peptides from the examples, as well as FK13 and HPA3NT3, were then added at concentrations of 80 μg/mL, 32 μg/mL, and 8 μg/mL. The cells were incubated at 37° C. for 60 hours. Afterward, 10 μL of CCK-8 solution was added, and the cells were cultured for an additional 2 hours. The absorbance of the peptides at 450 nm was measured using a dual-wavelength detector, with a detection wavelength of 450-490 nm and a reference wavelength of 600-650 nm.

Data set [2] has as its system Streptococcus mutans. Nature of the data set: Inhibitory effect of AMP-33 on Streptococcus mutans. The data set is classed as cell-based. The following applies: 5 and 10 μg/mL, 16 hours. How it is done:
(1) Streptococcus mutans was cultured to the logarithmic phase, then 5 mL of the bacterial solution was centrifuged at 5,000 g for 10 minutes. The organisms were resuspended in Brain-Heart Infusion (BHI) medium, and the concentration of the bacterial solution was adjusted to approximately 2×10^5 CFU/mL using pre-configured McClure's turbidimetric tubes.
(2) Streptococcus mutans was cultured in a microtiter plate (96 wells), and 50 μL of different AMP33 peptides were added (at concentrations of 5 and 10 μg/mL). Then, 100 μL of diluted Streptococcus mutans bacterial fluid was added, followed by 50 μL of BHI medium, resulting in a final concentration of 1×10^5 CFU/mL.
(3) A blank control was provided with equal amounts of medium solution and bacterial solution as that of the experimental group, with at least 3 replicates for each treatment group.
(4) The 96-well plate was placed in a bacterial incubator at 37° C. and incubated at 150 rpm for 16 hours.

Data on one substance can be found in patent publication US20250263441A1 (Metanovas Biotech Inc., priority 2024, published 2025).

In the case of “Example 2: LSKWLKKLGKLLAG (designated as AMP33)”, the Maximum cytotoxicity-free concentration in data set [1] stood at 80 µg/mL. Also, the “inhibition rate of Streptococcus mutans” value in data set [2] is “approximately 100%”.
